# PMC11347675
# Legend:
# [1] = target: 1059-SOSIP (soluble SOSIP Env trimer of the transmitted/founder HIV-1 strain 1059) (HIV-1 (strain 1059, transmitted/founder)); test: cryo-EM structure; unliganded SOSIP trimers purified by GNL/SEC; 2.16 mg/mL 1059-SOSIP, 3.64 mg/mL BG505-SOSIP; 0.085 mM DDM before vitrification; refined with C1 symmetry
# [2] = target: BG505-SOSIP (soluble SOSIP Env trimer of HIV-1 strain BG505) (HIV-1 (strain BG505)) (UniProt Q2N0S6); test: as above
Substance,stoichiometry N [1],stoichiometry N [2]
1059-SOSIP (soluble SOSIP Env trimer of the transmitted/founder HIV-1 strain 1059) (complex),3,
BG505-SOSIP (soluble SOSIP Env trimer of HIV-1 strain BG505) (from UniProt Q2N0S6 1-860; Q2N0S6 1-860) (complex),,3
